# Test system: MS2 coat protein
# Assay: apparent KD of MS2 coat protein; designed switch direction (-1 OFF switch, 1 ON switch): 1; higher = weaker reporter binding
# Summary of the method: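 Stalled E. coli RNA polymerase transcribed designed RNA switches on Illumina chips, which were then titrated with SNAP-549-labelled MS2 coat protein, doubling from 0.7 or 1.5 nM to 3 µM. Steps lasted from 0.8–1.5 h at the lowest concentration to 10–20 min at the highest. The apparent KD is each design's median over clusters of curve-fitted normalised fluorescence.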
# [1] = Eterna round: R95, input ligand: FMN 200 uM
# [2] = Eterna round: R95, input ligand: microRNA oligo, concentration not stated
# [3] = Eterna round: R95, input ligand: none
# [4] = input ligand: microRNA oligo, concentration not stated
Sequence,apparent KD of MS2 coat protein [1] [nM],apparent KD of MS2 coat protein [2] [nM],apparent KD of MS2 coat protein [3] [nM],apparent KD of MS2 coat protein (input ligand: FMN 200 uM) [nM],apparent KD of MS2 coat protein [4] [nM],apparent KD of MS2 coat protein (input ligand: none) [nM]
AACAAUCUAUCUGAGGAUAUCAUGAAAUAAACAUGAGGAUCACCCAUGUGCAGGAAAACUGCAUAUGAGAAGGCAGAUUGAUUGA [salish99_ss2_r3_054] (puzzle: Same State 2),56,2560,1280,,,
AACAAUCUAUCUGAGGAUAUCAUGAAAUAAACAUGAGGAUCACCCAUGUUCAGGAAAACUGCAUAUGAGAAGGCAGAUAGAUUGA [salish99_ss2_r3_035] (puzzle: Same State 2),10.4,16.2,15.3,,,
AACAAUCUAUCUGAGGAUAUCAUGAAAUUAACAUGAGGAUCACCCAUGUGCAGGAAAACUGCAUAUGAGAAGGCAGAUAGAUUGA [salish99_ss2_r3_033] (puzzle: Same State 2),120,1110,2020,,,
"AACAUGUGGUGUUACAUGAGGAUCACCCAUGUGGCAAAAGCUGAGGAUAUCAUUAAACCCAUGAAUGAGAAGGUAGGAUCACAA [AK SSNG3-V2-20] (Eterna round: R96, puzzle: Same State NG 3)",,,,85.2,124,127
"AACCCAUCGGGAGGAUAUGGCACCUUAUUGGUGCCAGAAGGUCCAACAUGAGGAUCACCCAUGUGGGAGCCGUCGAAAGACGGC [Fiskers NG1ss - 7] (Eterna round: R96, puzzle: Same State NG 1)",,,,270,66.5,293
AACCUACAUGAGGAUCACCCAUGUGUCUAAGGCACAGGAUAUCGACAGGCAAGACGCCUGCGAGAAGGGUGACCUA [Erononer] (puzzle: Same State 1),58.7,34.4,262,,,
AACGUGGGAGCACAGGAUAUGCAUUGCUCCACAUGAGGAUCACCCAUGUAGGCAAAUAGGGAGCAGCAGAAGGGUGGUCCGACAC [Orraonrexe] (puzzle: Same State 2),17.3,8.24,21.8,,,
AACUUACGACCACAGGAUAUACUGAGGCGGACAUGAGGAUCACCCAUGUAGGCAAAAUAAGGGCAGUAGAAGGGUGGUCUUUACA [Usbiraxe] (puzzle: Same State 2),18.4,18.8,27.5,,,
"AAGAAACAUGAGGAUCACCCAUGUAGAAAUAUGGGAGGAUAUACGAGGACGAAAGUCAAAGUAGAAGGCCUAAGAA [Mat - Same State 1 - Meechl mod - D130] (Eterna round: R96, puzzle: Same State 1)",,,,21.4,54.5,63.8
"AAGCAGAGGCAAGGAUAUGUGAAGACCCAGCCUAGGCUGGGCACAUGAGGAUCACCCAUGUACAAACAGAAGGUGUAACCAGGC [Eternabot solution 18] (Eterna round: R96, puzzle: Same State NG 2)",,,,40.5,116,161
AAGCGCUGUCGAGAGGAUAUGCGGUGAUGGACAUGAGGAUCACCCAUGUUAGCGAUAGCAUUACGGUAGAAGGCUCUACAGCUGA [Mat - Same State 2 - Mod of UCT - D86] (puzzle: Same State 2),28.3,268,272,,,
AAGGUCUUCGUACAGGAUAUGCACUUGUGCACAUGAGGAUCACCCAUGUGGGAAAAGGUCACAGGGCAGAAGGGUAUUUAUAAAA [Erriti] (puzzle: Same State 2),39.4,66.6,103,,,
"AAGUAGCGAGAGCUACACAAAAAGUUUGUACAUGAGGAUCACCCAUGUUGUACAAGCUUUUUGCUCGUCUUAAAAAA [Mat - Sensor - JL mod - D14] (Eterna round: R96, puzzle: Sensor for hsa-mir-208a)",,,,77.4,11.6,84.1
"AAGUGAAUAGUGAUUACAUGAGGAUCACCCAUGUGGUGGAUGCAGGAUAUUAUUAGACCGUACAAUAAGAAGGGCGUAAUCACC [Eternabot solution 44] (Eterna round: R96, puzzle: Same State NG 3)",,,,226,270,403
AAUAAUCUAUCUGAGGAUAUCAUGAAAUAAACAUGAGGAUCACCCAUGUGCAGGAAAACUGCAUAUGAGAAGGCAGAUAGAUUGA [salish99_ss2_r3_020] (puzzle: Same State 2),43.8,551,1160,,,
"AAUAUAUUAAGUGAGGAUAUCGAGGAAAAAACAUGAGGAUCACCCAUGUGGGUAAAAAAAAAAAGUGAGAAGGUGCUUAAUAUAU [Samwise Clockwise 10 - Jieux - Same State 2] (Eterna round: R96, puzzle: Same State 2)",,,,34.9,40.1,69.1

Sequence,apparent KD of MS2 coat protein [1] [nM],apparent KD of MS2 coat protein [2] [nM],apparent KD of MS2 coat protein [3] [nM],apparent KD of MS2 coat protein (input ligand: FMN 200 uM) [nM],apparent KD of MS2 coat protein [4] [nM],apparent KD of MS2 coat protein (input ligand: none) [nM]
AAUGCACAUGAGGAUCACCCAUGUAAGACAAAGACAGGAUAUGGGCCGCAUGGCUCUGGCCCAGAAGGGUCAGUCG [Biorinin] (puzzle: Same State 1),,19.8,,,,
"AAUUAAGAUUGAGGAUAUCACGUCGAAUAGACGUGAGAAGGCGAUCAUAACAUGAGGAUCACCCAUGUAUUACAUGAAUUAAUU [SSNG1/5-B1] (Eterna round: R96, puzzle: Same State NG 1)",,,,30.2,31.9,32.3
"AAUUAAUUAAUACAUGAGGAUCACCCAUGUAAUUAUUAGAUCUAGGAUAUCAGCUCGAAUAGAGCUGAGAAGGAGAUCACAUGU [SSNG3/18-B1] (Eterna round: R96, puzzle: Same State NG 3)",,,,,14.5,
ACAAGCUUUUCUGUAUUGAAAGGUGGGAUACAUGAGGAUCACCCAUGUUUUUUUGUUUAUAUUUGUCCUCGUCUUAU [JR_SHM208A_Sub087] (puzzle: Sensor for hsa-mir-208a),52.7,33.2,46.7,,,
"ACAUGAGACCUAGGAUAUAUUGUACCUACAUGUGACAUGAGGAUCACCCAUGUGGUAAGUAUGACAUAGAAGGAGGAGAUAUGU [Equivalance 93 - Jieux - Same State NG 2] (Eterna round: R96, puzzle: Same State NG 2)",,,,31.5,27.2,54.7
"ACAUGAGACCUAGGAUAUCUUGUACCUACAUGUGACAUGAGGAUCACCCAUGUGGUAAGUAUGAUAGAGAAGGAGGAGAUAUGU [Equivalance 55 - Jieux - Same State NG 2] (Eterna round: R96, puzzle: Same State NG 2)",,,,15.6,39.8,51.9
"ACAUGAGACUUAGGAUAUCUUGUACCUACAUGUGACAUGAGGAUCACCCAUGUGGUAAGUAUGACAGAGAAGGAAGAGAUAUGU [Equivalance 68 - Jieux - Same State NG 2] (Eterna round: R96, puzzle: Same State NG 2)",,,,40.4,49.9,79.7
"ACAUGAGACUUAGGAUAUCUUGUACCUACAUGUGACAUGAGGAUCACCCAUGUGGUAAGUAUGAGGGAGAAGGAAGAGAUAUGU [Equivalence 38 - Jieux - Same State NG 2] (Eterna round: R96, puzzle: Same State NG 2)",,,,30.8,21,33.9
"ACAUGAGAGAAAGGAUAUCAUGUACCUACAUGUGACAUGAGGAUCACCCAUGUGGUAAGUAUGAGUGAGAAGGUUCAGAUAUGU [Equivalence 34 - Jieux - Same State NG 2] (Eterna round: R96, puzzle: Same State NG 2)",,,,44.4,298,448
"ACAUGAGAUCUAGGAUAUAUAGUACCUACAUGUGACAUGAGGAUCACCCAUGUGGUAAGUAUGACAUAGAAGGAGAAGAUAUGU [Equivalance 96 - Jieux - Same State NG 2] (Eterna round: R96, puzzle: Same State NG 2)",,,,37.2,50.9,55.5
"ACAUGAGGAUCACCCAUGUAUAGAAUUGAAUGUUAAGAUACGUAGGAUAUCGAGUUUAGUAUGAUCGAGAAGGACGAUCUGAUA [JR_SSNG3_Sub065] (Eterna round: R96, puzzle: Same State NG 3)",,,,,14.5,
ACCAAUCCAAUAAAACAAGCGUGCUCGUCACAUGAGGAUCACCCAUGUUCAAGCGCUGUUCCUAAUUCCUCAGCGCC [Ortiat] (puzzle: Sensor for hsa-mir-208a),72.3,22.3,67.7,,,
ACGCAGCUGGGCAAGGAUAUCGGUGGUAAAACAUGAGGAUCACCCAUGUCCGAAGCUCGGACUUCCGAGAAGGUGCCCGGCUGCG [Soinraesar Omei Mod 8] (puzzle: Same State 2),20.1,119,238,,,
"ACUAGAUCGAAAGAUCUAGAAAACGAGUAACAUGAGGAUCACCCAUGUUCAUGUUGCUCGUCUUAAGCCGAAAGGCG [JL ALT 15] (Eterna round: R96, puzzle: Sensor for hsa-mir-208a)",,,,71.5,38,22.8
"ACUCAGUACAAUUUAGAUCUACAUGAGGAUCACCCAUGUACUGAGGAUAUCAGCUCGAAUAGAGCUGAGAAGGCAGUUGUACUA [SSNG3/10-A1] (Eterna round: R96, puzzle: Same State NG 3)",,,,102,138,248

# Source: the supplement of paper PMC9170038
